From US6482933 (Takeda / Millennium, dated 2002) come the findings set out here.

The target in the test is T1, CARD-4L epitope tagged with HA (pCI-CARD-4LcHA) (human, UniProt Q9Y239 1-953).
T1 construct: Expressed in 293T cells from pCI; in cell lysate
T1 sequence: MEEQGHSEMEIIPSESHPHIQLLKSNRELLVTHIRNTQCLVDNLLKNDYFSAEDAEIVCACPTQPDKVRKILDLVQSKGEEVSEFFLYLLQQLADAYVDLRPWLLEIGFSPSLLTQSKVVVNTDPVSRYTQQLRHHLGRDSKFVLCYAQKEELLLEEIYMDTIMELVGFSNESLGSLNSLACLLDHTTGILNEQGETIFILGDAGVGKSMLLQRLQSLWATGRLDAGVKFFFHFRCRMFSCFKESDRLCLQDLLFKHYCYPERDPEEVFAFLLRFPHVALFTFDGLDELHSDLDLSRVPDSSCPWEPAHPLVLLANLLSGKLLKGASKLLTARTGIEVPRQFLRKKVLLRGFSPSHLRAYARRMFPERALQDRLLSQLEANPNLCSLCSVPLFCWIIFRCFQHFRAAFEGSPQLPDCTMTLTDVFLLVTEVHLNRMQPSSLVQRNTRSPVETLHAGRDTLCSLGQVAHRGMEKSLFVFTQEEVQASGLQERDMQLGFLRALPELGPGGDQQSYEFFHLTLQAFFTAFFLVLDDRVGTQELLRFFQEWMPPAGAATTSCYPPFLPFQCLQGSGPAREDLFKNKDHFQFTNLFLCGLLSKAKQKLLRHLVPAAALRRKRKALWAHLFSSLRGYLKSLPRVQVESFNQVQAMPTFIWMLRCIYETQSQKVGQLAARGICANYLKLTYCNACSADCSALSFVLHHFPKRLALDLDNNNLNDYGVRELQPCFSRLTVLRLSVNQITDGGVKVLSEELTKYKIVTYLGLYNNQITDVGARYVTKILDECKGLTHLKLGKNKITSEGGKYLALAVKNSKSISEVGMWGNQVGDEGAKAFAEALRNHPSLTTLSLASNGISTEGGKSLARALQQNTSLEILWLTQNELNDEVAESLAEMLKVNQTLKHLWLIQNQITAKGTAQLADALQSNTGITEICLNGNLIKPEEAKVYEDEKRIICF
As to the kind of experiment: coimmunoprecipitation from cotransfected 293T cells (anti-MYC IP, anti-HA Western blot).

Method: Cells from each transfected line were lysed and an immunoprecipitation procedure was carried out on each lysate with an anti-MYC epitope tag antibody to precipitate the CARD-4LcHA expressed by each cell line and any physically associated proteins.

B1: CARD-3 lacking the CARD domain (SEQ ID NO:6) epitope tagged with MYC (pCI-CARD3noCARDnMYC) (other, not shown: small tags and cut ends)
chain: MNGEAICSALPTIPYHKLADLRYLSRGASGTVSSARHADWRVQVAVKHLHIHTPLLDSERKDVLREAEILHKARFSYILPILGICNEPEFLGIVTEYMPNGSLNELLHRKTEYPDVAWPLRFRILHEIALGVNYLHNMTPPLLHHDLKTQNILLDNEFHVKIADFGLSKWRMMSLSQSRSSKSAPEGGTIIYMPPENYEPGQKSRASIKHDIYSYAVITWEVLSRKQPFEDVTNPLQIMYSVSQGHRPVINEESLPYDIPHRARMISLIESGWAQNPDERPSFLKCLIELEPVLRTFEEITFLEAVIQLKKTKLQSVSSAIHLCDKKKMELSLNIPVNHGPQEESCGSSQLHENSGSPETSRSLPAPQDNDFLSRKAQDCYFMKLHHCPGNHSWDSTISGSQRAAFCDHKTIPCSSAIINPLSTAGNSERL
notes: also called CARD-3 lacking its CARD domain
For B1, the binding result is “no binding”.
